Measurements published in patent US20170008937.

Target: GST-Rac1 (UniProt P63000)

## TcdASAS (Clostridium difficile toxin A with VNN mutated to SAS: V1109S, N1110A, N1111S)
  Rac1 glucosylation in vitro (Western blot, 100 nM toxin, 3 hours): not impaired in their capacity to glucosylate Rac1 in vitro
